Data reported in paper PMC10214526 (2023).
Where no end group is shown, it is not given here.

Assays:
LC3A = LC3A (UniProt Q9H492 1-121); test: FP
GABARAP = GABARAP (UniProt O95166 2-116); test: FP
Sequence of GABARAP (O95166 2-116): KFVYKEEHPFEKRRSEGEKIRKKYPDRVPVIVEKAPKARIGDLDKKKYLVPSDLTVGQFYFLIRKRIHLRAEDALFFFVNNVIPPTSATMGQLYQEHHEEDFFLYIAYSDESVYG

Binder	Kd (LC3A)	Kd (GABARAP)
LEAIIEEDDGDGGWVDTYHCGGGK (also: fluorescein, position not given here, cyclized, places not given here) [fluorescein-modified cyclized LIR^ATG3 peptide]	410 nM	150 nM
LEAIIEEDDGDGGWVDTYH (also: fluorescein, position not given here) [fluorescein-modified linear LIR^ATG3 peptide]	2600 nM	1200 nM
GDGGWVDTY (also: fluorescein, position not given here) [fluorescein-modified truncated (103–111) LIR^ATG3 peptide]	> 15000 nM	> 10000 nM
